The target of one experiment is Human EGFR (Homo sapiens, UniProt P00533). The experiment can be described thus: SPR (BIAcore T200) antibody capture kinetics. To be noted: for Koff / Kon: 25° C.; for Kon: 1:1 binding model. It counts as binding. The procedure:
(§1) Mouse anti-human IgG was immobilized on a CM4 sensor chip with a final surface density of ˜2000 resonance units (RUs). A reference flow cell surface was also prepared on this sensor chip using identical immobilization protocol. Test and control article antibodies were prepared at 5-20 nM in instrument buffer (HBS-EP buffer; 0.01M HEPES, pH 7.4, 0.15M NaCl, 3 mM EDTA, and 0.005% P-20), along with 3-fold serial dilutions of purified EGFR (0.27-200 nM human, 0.4-900 nM cyno, and 4-1000 nM murine) or cMET proteins (0.27 to 66 nM human and 0.27-22 nM cyno) in instrument buffer. A sequential approach was utilized for kinetic measurements. Antibodies were first injected over the capture surface, at a flow rate of 10 μL/minute. Once the binding of the captured antibody stabilized, a single concentration of the analyte was injected over both capture and reference surfaces, at a flow rate of 75 μL/minute. The resulting binding response curves yielded the association phase data. Following the injection of analyte, the flow was then switched back to instrument buffer for 15 minutes to permit the collection of dissociation phase data, followed by a 1-minute pulse of 10 mM glycine, pH 1.5, to regenerate the antibody-captured surface on the chip. Binding responses against test and control article antibodies were recorded from duplicate injections of each concentration of analyte. In addition, several buffer injections were interspersed throughout the injection series. Select buffer injections were used along with the reference cell responses to correct the raw data sets for injection artifacts and/or nonspecific binding interactions, commonly referred to as “double referencing”. Corrected binding data were globally fit to a 1:1 binding model (Biacore T200 Evaluation software 2.0, GE Healthcare, Pittsburgh, PA).

The next experiment has as its system Cynomolgus monkey EGFR. As to the kind of experiment: SPR (BIAcore T200) antibody capture kinetics. To be noted: 25° C. The experiment is classed as binding. As for the experimental part: as §1
The target of experiment [1] is T1, Mouse EGFR (Mus musculus, UniProt Q01279).
T1 construct: purchased SinoBiological 51091-M08H
As to the kind of experiment: SPR (BIAcore T200) antibody capture kinetics. It counts as binding. To be noted: for Koff / Kon: 25° C. The procedure:
as §1

A further experiment has as its system Cynomolgus monkey cMET. The experiment can be described thus: SPR (BIAcore T200) antibody capture kinetics. The experiment is classed as binding. To be noted: 25° C. As for the experimental part: as §1
For orientation: Surface plasmon resonance follows binding to a sensor surface in real time, without labels.

Another experiment concerns the target Human cMET (Homo sapiens, UniProt P08581). As to the kind of experiment: SPR (BIAcore T200) antibody capture kinetics. It counts as binding. Particulars: for Koff / Kon: 25° C. The procedure:
as §1

The target of the next experiment is T2, HER3 (UniProt P21860 20-643, limits assumed).
T2 construct: also called EGFR HER family protein HER3
The experiment can be described thus: ELISA: antigen coated at 1 ug/mL, antibody dilution series, goat anti-human Fab-HRP, A450; panel Human HER3.

A further experiment concerns the target T3, HER2 (UniProt P04626 23-652, limits assumed).
T3 construct: also called EGFR HER family protein HER2
As to the kind of experiment: ELISA: antigen coated at 1 ug/mL, antibody dilution series, goat anti-human Fab-HRP, A450; panel Human HER2. Background: An ELISA detects its analyte on a solid surface through an enzyme-linked reagent.

Experiment [2] concerns the target T1, Mouse EGFR. The experiment can be described thus: ELISA species cross reactivity. The experiment is classed as binding.
Another experiment deals with T4, Semaphorin 3a (UniProt Q14563 21-771, limits assumed).
T4 construct: also called Sema 3a
T4 sequence (looked up): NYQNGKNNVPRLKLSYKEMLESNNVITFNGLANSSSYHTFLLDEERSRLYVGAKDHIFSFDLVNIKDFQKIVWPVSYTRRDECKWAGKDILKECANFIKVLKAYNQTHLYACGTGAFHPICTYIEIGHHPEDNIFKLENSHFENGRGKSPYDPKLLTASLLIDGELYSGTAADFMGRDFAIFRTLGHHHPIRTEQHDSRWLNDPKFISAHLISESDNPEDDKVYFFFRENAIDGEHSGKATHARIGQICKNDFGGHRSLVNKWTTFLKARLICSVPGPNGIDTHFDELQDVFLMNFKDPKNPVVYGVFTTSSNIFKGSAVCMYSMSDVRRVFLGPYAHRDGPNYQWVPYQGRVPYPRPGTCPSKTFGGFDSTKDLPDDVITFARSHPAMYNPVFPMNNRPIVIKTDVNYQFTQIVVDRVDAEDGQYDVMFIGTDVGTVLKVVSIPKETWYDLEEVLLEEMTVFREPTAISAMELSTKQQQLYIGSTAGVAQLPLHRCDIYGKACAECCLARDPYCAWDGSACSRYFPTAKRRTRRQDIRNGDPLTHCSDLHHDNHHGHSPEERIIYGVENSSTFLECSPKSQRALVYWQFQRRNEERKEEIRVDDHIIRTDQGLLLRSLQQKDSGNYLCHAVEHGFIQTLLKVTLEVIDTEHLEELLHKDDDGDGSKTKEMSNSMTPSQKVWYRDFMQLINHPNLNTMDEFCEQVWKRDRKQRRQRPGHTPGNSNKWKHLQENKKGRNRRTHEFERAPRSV
As to the kind of experiment: ELISA: antigen coated at 1 ug/mL, antibody dilution series, goat anti-human Fab-HRP, A450; panel Human Sema3a.

Here are results for 2 molecules from patent US20260166140A1, “Combinations Involving Epidermal Growth Factor Receptor Tyrosine Kinase Inhibitors For the Treatment of Cancer” (AstraZeneca AB, priority 2022, published 2026).

Broadly, the Kd is the free concentration of one partner at which half of the binding sites on the other are occupied at equilibrium, for simple one-to-one binding.

Chain of Human cMET (P08581 25-932): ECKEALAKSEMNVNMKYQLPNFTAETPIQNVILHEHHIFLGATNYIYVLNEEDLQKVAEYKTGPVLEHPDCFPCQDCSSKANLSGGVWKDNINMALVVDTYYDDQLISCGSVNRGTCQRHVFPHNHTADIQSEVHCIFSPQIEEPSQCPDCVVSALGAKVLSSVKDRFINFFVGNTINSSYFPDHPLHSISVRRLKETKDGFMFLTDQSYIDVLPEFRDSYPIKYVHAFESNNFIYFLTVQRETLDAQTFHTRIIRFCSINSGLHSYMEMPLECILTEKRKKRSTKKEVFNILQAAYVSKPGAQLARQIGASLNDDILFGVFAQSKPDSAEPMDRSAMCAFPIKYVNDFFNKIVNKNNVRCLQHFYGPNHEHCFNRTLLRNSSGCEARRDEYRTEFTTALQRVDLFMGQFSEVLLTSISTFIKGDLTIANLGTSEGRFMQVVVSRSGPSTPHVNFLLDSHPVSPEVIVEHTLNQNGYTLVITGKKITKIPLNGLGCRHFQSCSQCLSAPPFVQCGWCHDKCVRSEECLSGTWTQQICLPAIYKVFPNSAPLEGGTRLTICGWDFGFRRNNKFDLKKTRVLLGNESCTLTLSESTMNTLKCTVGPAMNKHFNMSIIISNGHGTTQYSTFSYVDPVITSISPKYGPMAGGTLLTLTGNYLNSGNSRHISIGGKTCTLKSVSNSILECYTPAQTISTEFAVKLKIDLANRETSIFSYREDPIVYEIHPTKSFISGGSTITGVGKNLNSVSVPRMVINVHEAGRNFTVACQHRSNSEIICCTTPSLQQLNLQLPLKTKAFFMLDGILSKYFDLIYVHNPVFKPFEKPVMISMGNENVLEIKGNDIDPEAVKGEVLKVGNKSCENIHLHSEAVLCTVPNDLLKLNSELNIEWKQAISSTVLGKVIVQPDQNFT
Chain of Cynomolgus monkey cMET (as listed by the source): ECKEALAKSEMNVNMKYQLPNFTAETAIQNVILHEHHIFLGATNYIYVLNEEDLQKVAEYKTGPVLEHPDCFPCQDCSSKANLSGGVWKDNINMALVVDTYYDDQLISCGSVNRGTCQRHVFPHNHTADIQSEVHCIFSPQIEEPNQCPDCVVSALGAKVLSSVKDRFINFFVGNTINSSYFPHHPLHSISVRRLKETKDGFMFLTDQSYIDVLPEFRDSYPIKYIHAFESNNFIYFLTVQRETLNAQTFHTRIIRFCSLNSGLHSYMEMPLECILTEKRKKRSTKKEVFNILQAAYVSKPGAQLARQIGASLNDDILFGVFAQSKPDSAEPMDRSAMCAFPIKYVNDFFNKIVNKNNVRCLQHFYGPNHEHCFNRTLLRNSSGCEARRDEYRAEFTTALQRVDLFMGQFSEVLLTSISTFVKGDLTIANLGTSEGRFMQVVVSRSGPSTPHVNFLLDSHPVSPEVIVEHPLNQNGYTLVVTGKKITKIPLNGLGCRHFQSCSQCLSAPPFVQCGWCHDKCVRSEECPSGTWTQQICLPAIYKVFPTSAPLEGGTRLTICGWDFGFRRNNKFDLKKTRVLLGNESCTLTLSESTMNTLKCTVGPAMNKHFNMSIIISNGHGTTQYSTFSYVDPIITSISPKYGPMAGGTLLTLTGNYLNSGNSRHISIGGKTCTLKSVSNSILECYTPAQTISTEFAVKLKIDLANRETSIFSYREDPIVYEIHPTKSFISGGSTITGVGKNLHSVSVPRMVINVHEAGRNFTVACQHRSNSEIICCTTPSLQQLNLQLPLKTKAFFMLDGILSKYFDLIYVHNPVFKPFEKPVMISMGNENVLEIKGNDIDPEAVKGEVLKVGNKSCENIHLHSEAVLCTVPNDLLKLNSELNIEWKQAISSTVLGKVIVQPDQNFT

B1: RAA22/B09-57 DuetMab (bispecific antibody, human IgG1, kappa, lambda)
heavy 1: QVQLVQSGAEVKKPGSSVKVSCKASGGTFSDNDFSWVRQAPGQGLEWMGAIVAVFRTETYAQKFQDRVKITADISTRTTYMELSSLRSEDTAVYYCARRLMSAISGPGAPLLMWGQGTLVTVSSASTKGPSVFPLAPSSKSTSGGTAALGCLVKDYFPEPVTVSWNSGALTSGVHTFPAVLQSSGLYSLSSVVTVPSSSLGTQTYICNVNHKPSNTKVDKRVEPKSCDKTHTCPPCPAPELLGGPSCVFLFPPKPKDTLMISRTPEVTCVVVDVSHEDPEVKFNWYVDGVEVHNAKTKPREEQYNSTYRVVSVLTVLHQDWLNGKEYKCKVSNKALPAPIEKTISKAKGQPREPQVCTLPPSREEMTKNQVSLSCAVKGFYPSDIAVEWESNGQPENNYKTTPPVLDSDGSFFLVSKLTVDKSRWQQGNVFSCSVMHEALHNHYTQKSLSLSPGK
heavy 2: QVQLVQSGAEVKKPGASVKVSCKASGYTFTDYYIHWVRQATGQGLEWMGWMNPNSGNTGYAQKFQGRVTMTRDTSISTAYMELSSLRSEDTAVYYCARGQGYTHSWGQGTMVTVSSASTKGPSVCPLAPSSKSTSGGTAALGCLVKDYFPEPVTVSWNSGALTSGVHTFPAVLQSSGLYSLSSVVTVPSSSLGTQTYICNVNHKPSNTKVDKRVEPKSVDKTHTCPPCPAPELLGGPSCVFLFPPKPKDTLMISRTPEVTCVVVDVSHEDPEVKFNWYVDGVEVHNAKTKPREEQYNSTYRVVSVLTVLHQDWLNGKEYKCKVSNKALPAPIEKTISKAKGQPREPQVYTLPPCREEMTKNQVSLWCLVKGFYPSDIAVEWESNGQPENNYKTTPPVLDSDGSFFLYSKLTVDKSRWQQGNVFSCSVMHEALHNHYTQKSLSLSPG
light 1: QSALTQPRSVSGSPGQSVTISCTGTSSDVGGYNYVSWYQQHPGKAPKLMIYDVSKRPSGVPDRFSGSKSGNTASLTISGLQAEDEADYYCSSYTSSDTLEIFGGGTKLTVLGQPKAAPSVTLFPPSSEELQANKATLVCLISDFYPGAVTVAWKADSSPVKAGVETTTPSKQSNNKYAASSYLSLTPEQWKSHRSYSCQVTHEGSTVEKTVAPTECS
light 2: DIQMTQSPSTLSASVGDRVTITCRASEGIYHWLAWYQQKPGKAPKLLIYKASSLASGVPSRFSGSGSGTEFTLTISSLQPDDFATYYCQQYSNYPPTFGGGTKLEIKRTVAAPSVFIFPPCDEQLKSGTASVVCLLNNFYPREAKVQWKVDNALQSGNSQESVTEQDSKDSTYSLSSTLTLSKADYEKHKVYACEVTHQGLSSPVTKSFNRGEV
notes: also called monovalent bispecific EGFR/cMET DuetMAb RAA22/B09; RAA22/B09-Maia
On to B1, for which the Koff with Human EGFR came out at 0.00201 s⁻¹; in the experiment on Cynomolgus monkey EGFR it was 0.00548 s⁻¹; in the experiment with Mouse EGFR [1], 0.0206 s⁻¹; with Cynomolgus monkey cMET, 0.00212 s⁻¹; with Human cMET, 0.000986 s⁻¹. In addition, the Kon with Human EGFR turned out to be 44700 M⁻¹ s⁻¹; in the experiment on Cynomolgus monkey EGFR it was 27800 M⁻¹ s⁻¹; in the experiment with Mouse EGFR [1], 35400 M⁻¹ s⁻¹; in the experiment with Cynomolgus monkey cMET it was 974000 M⁻¹ s⁻¹; with Human cMET, 443000 M⁻¹ s⁻¹. The dissociation constant Kd with Human cMET (koff/kon) was about 2 nM. Besides, the binding result in the experiment with HER3, with HER2 and with Semaphorin 3a was “no binding (tested: 10 ug/ml)” throughout. The ELISA binding result with Mouse EGFR [2] is reported as “nominal binding”.

B2: QD6/B09-57 DuetMab (bispecific antibody, human IgG1, kappa, lambda)
heavy 1: QVQLVQSGAEVKKPGSSVKVSCKASGGTFSDNDFSWVRQAPGQGLEWMGAIVAVVRTETYAQKFQDRVKITADISTRTTYMELSSLRSEDTAVYYCARRLMSAISGPGAPLLMWGQGTLVTVSSASTKGPSVFPLAPSSKSTSGGTAALGCLVKDYFPEPVTVSWNSGALTSGVHTFPAVLQSSGLYSLSSVVTVPSSSLGTQTYICNVNHKPSNTKVDKRVEPKSCDKTHTCPPCPAPELLGGPSCVFLFPPKPKDTLMISRTPEVTCVVVDVSHEDPEVKFNWYVDGVEVHNAKTKPREEQYNSTYRVVSVLTVLHQDWLNGKEYKCKVSNKALPAPIEKTISKAKGQPREPQVCTLPPSREEMTKNQVSLSCAVKGFYPSDIAVEWESNGQPENNYKTTPPVLDSDGSFFLVSKLTVDKSRWQQGNVFSCSVMHEALHNHYTQKSLSLSPGK
heavy 2: QVQLVQSGAEVKKPGASVKVSCKASGYTFTDYYIHWVRQATGQGLEWMGWMNPNSGNTGYAQKFQGRVTMTRDTSISTAYMELSSLRSEDTAVYYCARGQGYTHSWGQGTMVTVSSASTKGPSVCPLAPSSKSTSGGTAALGCLVKDYFPEPVTVSWNSGALTSGVHTFPAVLQSSGLYSLSSVVTVPSSSLGTQTYICNVNHKPSNTKVDKRVEPKSVDKTHTCPPCPAPELLGGPSCVFLFPPKPKDTLMISRTPEVTCVVVDVSHEDPEVKFNWYVDGVEVHNAKTKPREEQYNSTYRVVSVLTVLHQDWLNGKEYKCKVSNKALPAPIEKTISKAKGQPREPQVYTLPPCREEMTKNQVSLWCLVKGFYPSDIAVEWESNGQPENNYKTTPPVLDSDGSFFLYSKLTVDKSRWQQGNVFSCSVMHEALHNHYTQKSLSLSPG
light 1: QSALTQPRSVSGSPGQSVTISCTGTSSDVGGYNYVSWYQQHPGKAPKLMIYDVSERPSGVPDRFSGSKSGNTASLTISGLQAEDEADYYCFSYTSSDTLEIFGGGTKLTVLGQPKAAPSVTLFPPSSEELQANKATLVCLISDFYPGAVTVAWKADSSPVKAGVETTTPSKQSNNKYAASSYLSLTPEQWKSHRSYSCQVTHEGSTVEKTVAPTECS
light 2: DIQMTQSPSTLSASVGDRVTITCRASEGIYHWLAWYQQKPGKAPKLLIYKASSLASGVPSRFSGSGSGTEFTLTISSLQPDDFATYYCQQYSNYPPTFGGGTKLEIKRTVAAPSVFIFPPCDEQLKSGTASVVCLLNNFYPREAKVQWKVDNALQSGNSQESVTEQDSKDSTYSLSSTLTLSKADYEKHKVYACEVTHQGLSSPVTKSFNRGEV
notes: also called monovalent bispecific EGFR/cMET DuetMAb QD6/B09
For B2, the Koff in the experiment with Human EGFR stood at 0.000374 s⁻¹; with Cynomolgus monkey EGFR, 0.000585 s⁻¹; with Mouse EGFR [1] it was 0.00078 s⁻¹; in the experiment with Cynomolgus monkey cMET, 0.00206 s⁻¹; with Human cMET, 0.000696 s⁻¹. The Kon in the experiment with Human EGFR stood at 63500 M⁻¹ s⁻¹; in the experiment on Cynomolgus monkey EGFR, 210000 M⁻¹ s⁻¹; in the experiment with Mouse EGFR [1], 126000 M⁻¹ s⁻¹; in the experiment on Cynomolgus monkey cMET it was 958000 M⁻¹ s⁻¹; with Human cMET, 425000 M⁻¹ s⁻¹. Moreover, the Kd with Human EGFR (KD calculated as koff/kon) and in the experiment with Mouse EGFR [1] (koff/kon) was about 6 nM throughout. Also, the binding result in the experiment with HER3, with HER2 and with Semaphorin 3a was “no binding (tested: 10 ug/ml)” throughout. Besides, the ELISA binding result with Mouse EGFR [2] is listed as “gave robust signals”.
